{"source": "patent US20060281078", "about": "“Human fast-1 gene” (published 2006)", "molecules": {"B1": {"name": "FBE* (dsDNA)", "DNA 1": "CGGATTCTGTATCGGCTGTAC", "DNA 2": "GTACAGCCGATACAGAATCCG"}, "B2": {"name": "FBE (dsDNA)", "DNA 1": "CGGATTGTGTATTGGCTGTAC", "DNA 2": "GTACAGCCAATACACAATCCG"}, "B3": {"name": "ARE (Mix.2) (dsDNA)", "DNA 1": "TATCTGCTGCCCTAAAATGTGTATTCCATGGAAATGTCTGCCCTTCTCTCCGTAC", "DNA 2": "GTACGGAGAGAAGGGCAGACATTTCCATGGAATACACATTTTAGGGCAGCAGATA"}, "B4": {"name": "ARE mutant (dsDNA)", "DNA 1": "B3 DNA 1 with G19C", "DNA 2": "B3 DNA 2 with C37G"}}, "key": {"[1]": {"target": "T1, hFAST-1 (Homo sapiens) (UniProt O75593)", "T1 sequence": "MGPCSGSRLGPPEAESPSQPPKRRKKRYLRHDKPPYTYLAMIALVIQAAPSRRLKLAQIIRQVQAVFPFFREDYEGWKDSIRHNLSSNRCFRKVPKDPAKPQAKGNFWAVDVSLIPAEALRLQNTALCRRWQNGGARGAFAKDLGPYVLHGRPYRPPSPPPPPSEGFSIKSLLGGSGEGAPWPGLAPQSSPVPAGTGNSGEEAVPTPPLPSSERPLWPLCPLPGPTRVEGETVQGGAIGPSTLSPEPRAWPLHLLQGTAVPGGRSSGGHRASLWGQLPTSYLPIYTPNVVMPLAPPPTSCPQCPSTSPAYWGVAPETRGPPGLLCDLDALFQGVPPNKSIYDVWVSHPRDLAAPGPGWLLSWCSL", "test": "cell_activity", "settings": "MvLu1 cells; TGF-beta dependent luciferase activation"}, "[2]": {"target": "T2, hFAST-1 full length (FAST-FL) (Homo sapiens, UniProt O75593 SEQ:1-365)", "T2 sequence": "T1 sequence", "test": "EMSA; two consensus positions altered", "settings": "tags: GST N-terminal fusion (pGEX2TK); label: 32P", "method": "(§1) Derivation of clones and EMSA were performed as described in Example 7. Mock selected clones were used for comparison (“C” lanes). The positions of free probe and hFAST-1 bound probe (“shift”) are indicated. FIG. 4B provides a sequence summary of clones that bound to hFAST-1. The sequences of the relevant segment of 17 hFAST-1-binding clones were determined and the fractions of clones containing the nucleotides at the indicated positions relative to the consensus are shown. […] Wild-type (FBE) or mutant (FBE*) oligonucleotides were incubated with 0.5-2.0 μg of GST fusion proteins containing full-length hFAST-1 (FAST-FL) or only its forkhead domain (FAST-FH). GST fusion proteins containing the MH1 or MH2 domains of Smad2 (S-N and S-C, respectively; Zawel et al., 1998) were used as controls. The FBE* oligonucleotide contained the sequence TCTGTATC in place of the consensus TGTGTATT but was otherwise identical to FBE. […] EMSA was performed with (+) or without (−) 1 μg of GST fusion protein containing full length FAST-1 (“FAST-FL”). The sequence of the 50 bp ARE oligonucleotide differed by only one bp from ARE*.\n(§2) Sixty bp probes corresponding to single clones were generated for EMSA by colony PCR using the following ³²P-labeled primers: 5′-[…]-3′ (SEQ ID NO:14) and 5′-[…]-3′ (SEQ ID NO:15). […]"}, "[3]": {"target": "Smad2 MH1 domain (S-N) (Homo sapiens, UniProt Q15796 Q15796:1-182)", "sequence (Q15796 1-182, one chain of several)": "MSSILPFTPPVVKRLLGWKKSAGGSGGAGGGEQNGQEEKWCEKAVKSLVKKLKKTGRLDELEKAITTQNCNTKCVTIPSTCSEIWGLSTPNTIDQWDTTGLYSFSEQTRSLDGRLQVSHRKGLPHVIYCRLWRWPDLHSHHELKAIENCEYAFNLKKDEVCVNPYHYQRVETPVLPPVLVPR", "test": "EMSA; specificity control", "settings": "tags: GST fusion; label: 32P", "method": "as §1, §2"}, "[4]": {"target": "Smad2 MH2 domain (S-C) (Homo sapiens, UniProt Q15796 SEQ:193-477)", "sequence (Q15796 183-467)": "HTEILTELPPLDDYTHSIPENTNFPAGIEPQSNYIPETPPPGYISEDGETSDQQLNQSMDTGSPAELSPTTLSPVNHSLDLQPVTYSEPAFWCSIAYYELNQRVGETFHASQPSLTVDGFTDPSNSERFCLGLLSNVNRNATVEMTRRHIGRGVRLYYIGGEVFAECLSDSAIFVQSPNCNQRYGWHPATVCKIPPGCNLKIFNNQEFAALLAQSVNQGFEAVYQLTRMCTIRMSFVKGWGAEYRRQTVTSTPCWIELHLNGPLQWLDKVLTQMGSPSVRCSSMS", "test": "EMSA; specificity control", "settings": "tags: GST fusion; label: 32P", "method": "as §1, §2"}, "[5]": {"target": "T2, hFAST-1 full length (FAST-FL)", "test": "EMSA; about 0.4 uM protein, 0.5 ng DNA", "settings": "tags: GST N-terminal fusion (pGEX2TK); label: 32P", "method": "as §1, §2"}, "[6]": {"target": "T2, hFAST-1 full length (FAST-FL)", "test": "EMSA; 1 ug GST fusion", "settings": "tags: GST N-terminal fusion (pGEX2TK); label: 32P", "method": "as §1, §2"}, "[7]": {"target": "T2, hFAST-1 full length (FAST-FL)", "test": "EMSA; single base substitution in FBE", "settings": "tags: GST N-terminal fusion (pGEX2TK); label: 32P", "method": "as §1, §2"}}, "note": "Changes are numbered by the printed parent chain.", "data": [{"molecule": "AR3-lux reporter (three copies of Mix.2 ARE)", "values": [{"measurement": "activity", "setting": "[1]", "result": "> 30", "unit": "fold"}]}, {"molecule": "B1", "values": [{"measurement": "binding result", "setting": "[2]", "result": "no binding"}]}, {"molecule": "B2", "values": [{"measurement": "binding result", "setting": "[3]", "result": "no binding"}, {"measurement": "binding result", "setting": "[4]", "result": "no binding"}, {"measurement": "binding result", "setting": "[5]", "result": "binds"}]}, {"molecule": "B3", "values": [{"measurement": "binding result", "setting": "[6]", "result": "binds"}]}, {"molecule": "B4", "values": [{"measurement": "binding result", "setting": "[7]", "result": "no binding"}]}]}
